The record followed here is the nanobody polyreactivity screen of Harvey et al. (2022).

This data set is described as follows: yeast display, Sf9 membrane polyspecificity reagent, FACS + sequencing; frameworks hold sequencing errors. Summed up: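 Nanobodies came from a synthetic yeast display library in Saccharomyces cerevisiae BJ5465, induced with galactose for 36–48 hours and stained for 1 hour at 4 °C with 10% biotinylated, detergent-solubilized Sf9 membrane reagent. Cells were enriched on streptavidin microbeads and then FACS-sorted, with low and high (top ~1%) gates set on anti-HA fluorescence for expression and streptavidin fluorescence for reagent binding. Each polyreactivity label reflects the gate a clone came from. Genes were amplified by colony PCR, sequenced by MiSeq 2 × 250 and filtered by CDR length.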
Turning to “QVQLVESGGGLVQAGGSLRLSCAASGRTISFYAMGWYRQAPGKERELVAAISRSGGSTYYADSVKGRFTISRDNAKNTVYLQMNSLKPEDTAVYYCAARDQYRWYKYDYWGQGTQVTVSS”, the “polyreactivity (PSR sort gate)” value is given as “high polyreactivity”. For the sequence “QVQLVESGGGLVQAGGSLRLSCAASGRTISYYAMGWYRQAPGKERELVAAITSSGSRTYYADSVKGRFTISRDNAKNTVYLQMNSLKPEDTAVYYCAAGKPYFRYDSWGQGTQVTVSS”, the “polyreactivity (PSR sort gate)” value is “high polyreactivity”.

Consider “QVQLVESGGGLVQAGGSLRLSCAASGRTITKYVMGWYRHAPGKERELVAAITSSGSSTYYADSVKGRFTISRDNAKNTVYLQMNSLKPEDTAVYYCAARRGAPFARQYDYWGQGTQVTVSS”, for which the “polyreactivity (PSR sort gate)” value is listed as “high polyreactivity”. In the case of “QVQLVESGGGLVQAGGSLRLSCAASGRTITYYAMGWYRQAPGKERELVAAISSAGRTNYAVSVKGRFTISRDNAKNTVYLQMNCLKPEDTAVYYCAKRYGWASGYWNSNYGYLYDYWGQGTLVTVSS”, the “polyreactivity (PSR sort gate)” value is listed as “high polyreactivity”. For “QVQLVESGGGLVQAGGSLRLSCAASGRTIVYNAMGWYRQAPGKESELVAAITSGGRTYYADSVKGRFTISRDNAKNTVYLQMNSVKPEDTAVYYCATDYYGPDYPLDYWGQGTQVTVSS” the value was “low polyreactivity”. In the case of “QVQLVESGGGLVQAGGSLRLSCAASGRTIWVYAMGWYRQAPGKERELVAAIRWSAGTTYYADSVKGRFTISRDNAKNTVYLQMNSLKPEDTAVYYCAADASSRYGVLEVDYWGQGTQVTVSS” it was “high polyreactivity”. In the case of “QVQLVESGGGLVQAGGSLRLSCAASGRTIWYYAKGWYRQAPGKERELVAAITRGGRTNYADSVKGRFTISRDNAKNTVDLQMNSLKPEDTAVYYCAADYRDPAHSYGYWGQGTQVTVSS” it was “high polyreactivity”.

As for “QVQLVESGGGLVQAGGSLRLSCAASGRTIWYYAMGWYRQAPGNERELVASITRSGGSTYADSVQGRFPISRDNAKNTVYLQMNSLKPQDTAVYYCAVGAVVPGLRRRTYYYWGQGTQVTVSS”, the “polyreactivity (PSR sort gate)” value is “high polyreactivity”. In the case of “QVQLVESGGGLVQAGGSLRLSCAASGRTIYSNAMGWYRQPPGKERELVAAITGSSGSTYYADSVKGRFTISRDNAKNTVYLQMNSLKPEDTAVYYCAASCYCSLVRQLRLRGQGTQVTVSS” it was “low polyreactivity”; in that of “QVQLVESGGGLVQAGGSLRLSCAASGRTIYYYVMGWYRQAPGKERQLVAAISASGGSTRYADSVKGRFTISRDNAKNTVYLQMNSLKPEDTAVYYCAASRRYGGYRFDYWGQGTQVTVSS”, “high polyreactivity”; in that of “QVQLVESGGGLVQAGGSLRLSCAASGRTLAFYAMGWYRQAPGKERELVAAITRGGGTYYADSVKGRFTISRDNAKNTVDLQMNSLIPEDTAVYYCNADSGFRWGAFDYWGQGTQLTVSS”, “low polyreactivity”. In the case of “QVQLVESGGGLVQAGGSLRLSCAASGRTLAPNAMGWYRQAPGKERELVSTITRGGTTNYADSVKGRFTISRDNAKNTVYLQMNSLKPEDTAVYYCAKAHYLGYYQRYDYWGQGTQVTVSS” it was “low polyreactivity”; in that of “QVQLVESGGGLVQAGGSLRLSCAASGRTLDGNDMGWYRQPPGKERELVAAITVTGSSTYYADSVKGRFTISRDNAKNTVYLQMNSLKPEDTAVYYCAKASGGDVRYSYSYRMDYWGQGTQVTVSS”, “low polyreactivity”. In the case of “QVQLVESGGGLVQAGGSLRLSCAASGRTLDHYAMGWYRQAPGKERELVAAITSSGGSTYYADSVKGRFTISRDNAKNTVYLQMNSLKPEETAVSYCAADVSSQREWIIEHDYWGQGTQVTVSS” it was “low polyreactivity”; in that of “QVQLVESGGGLVQAGGSLRLSCAASGRTLDRYAMGWYSPAPGKERELVAAIRWSTGSTYYADSVKGRFTISRDNAKNTVYLQMNSLKPEDTAVYYCAAELSYWWYFAMDYWGQGTQVTVSS”, “high polyreactivity”; in that of “QVQLVESGGGLVQAGGSLRLSCAASGRTLDWNAMGWYRQAPGKERELVAAISWSGDSTYYADSVKGRFTISRDNAKNTVYLQMNSLKPEDTAVYYCAARYGRSWGRGYGYWGQGTQVTVSS”, “low polyreactivity”. Regarding “QVQLVESGGGLVQAGGSLRLSCAASGRTLDWNAMGWYRQAPGKERELVAAISWSGDSTYYADSVKGRFTISRDNAKNTVYLQMNSLKPEDTAVYYCDARYGRSWGRGYGYWGQGTQVTVSS”, the “polyreactivity (PSR sort gate)” value is reported as “low polyreactivity”. For “QVQLVESGGGLVQAGGSLRLSCAASGRTLEHNAMGWYRQAPGKERELVAAISGSGGTTYYADSVKGRFTISRDNAKNTVYLQMNSLKPEDTAVYYCNAKLYRSFDYWGQGTQVTVSS” the value was “low polyreactivity”; for “QVQLVESGGGLVQAGGSLRLSCAASGRTLEQYAMGWYRQAPRKERELVAAINKSGARTYYADSVKGRFTISRDNAKNSVYLQMNSQKPEDTAVYYCNTVGPSYLFDYWGQGTQVTVSS”, “high polyreactivity”; for “QVQLVESGGGLVQAGGSLRLSCAASGRTLGLYAMGWYRQAPGKERELVAAITTSGGSTSYADSVKGRFTISRDNAKNTVYLQMNSLKPEDTAVYYCAARYLSYITGTSYYWGQGTQVTVSS”, “low polyreactivity”. For “QVQLVESGGGLVQAGGSLRLSCAASGRTLGPNAMGWYRQAPGKERELVAAISWSGGSTYYADSVKGRFTISRDNAKNTVYLQMNSLKPEDTAVYYCAAEWYWVYYVPYEYWGQGTQVTVSS” the value was “low polyreactivity”. For the sequence “QVQLVESGGGLVQAGGSLRLSCAASGRTLGRNAMGWYRQAPGKVRELVASISSGGSTNYAYSVKGSFTISRDNAKNTVYLQMNSQKPEDTEVYYCNKRYRSLYSSGYDYWGQVTQVTVSS”, the “polyreactivity (PSR sort gate)” value was “high polyreactivity”. In the case of “QVQLVESGGGLVQAGGSLRLSCAASGRTLGRYAMGWYRHAPGKERELVADISFRGGSTYYADSVKGRFTISRDNAKNTVYLQMNSLKPVDTAVYYCAAVPGPASKYGYWGQGTQVTVSS” it was “high polyreactivity”; in that of “QVQLVESGGGLVQAGGSLRLSCAASGRTLGVYAMGWSRQAPGKERELVAAIRYRGGITYYADSVKGRFTISRDNAKNTVYLQMNSLKPEDTAVYYCAADWAWDTKSAPAYPRAYDYWGQGTQVTVSS”, “low polyreactivity”; in that of “QVQLVESGGGLVQAGGSLRLSCAASGRTLGYYAMGWYRQAPGKERELVAAITSRTGTTYYADSVKGRFTISRDNAKNTVFLQMNSLKPEDTAVYYCNAAYYSTVLGWYLEYDYWGQGTQVTVSS”, “high polyreactivity”. For “QVQLVESGGGLVQAGGSLRLSCAASGRTLHDYTMGWYRQSPGKERELVAGITSGGRTNYADSVKGRFTISRDNAKNTVYLQMNSLKPEDTADYYCAAAWTWWRLYAVDYWGQGTQVTVSS” the value was “high polyreactivity”. For “QVQLVESGGGLVQAGGSLRLSCAASGRTLHYYAMGWYRQAPGKERELVARINWSGGSTYYADSVKGRFTISRDNAKNTVYLQMNCLKPEDTAVYYCARTSYYWSSFDYWGQGTQVTVSS” the value was “high polyreactivity”; for “QVQLVESGGGLVQAGGSLRLSCAASGRTLKRNAMGWYRQAPGKERELVAAISFRVTNTYYADSVKGRFTISRDNAKNTVYLQMNSLKPEDTAVYYCAVPDSRFYSPRRVSPHDYWGQGTQVTVSS”, “high polyreactivity”; for “QVQLVESGGGLVQAGGSLRLSCAASGRTLKYNPMGWYRQAPGKERELVAAISRSGGRTYYADSVKGRFTIARDIAKYSVYSQINSLKPEDTAVYYCARESSYYKYYYWGQGTQVTLSS”, “high polyreactivity”. Regarding “QVQLVESGGGLVQAGGSLRLSCAASGRTLLPNAMGWYRPAPGKERELVADISTSDGSTRYADSVKGRFTISRDNAKNTVYLQMNSLKPEDTAVYYCAAGSEYYSYGGVRFSFYYWGQGTQVTVSS”, the “polyreactivity (PSR sort gate)” value is recorded as “low polyreactivity”. “QVQLVESGGGLVQAGGSLRLSCAASGRTLNTYTMGWYRQAPGKERELVAAITWRGGRTYYADSVKRRFTISRDYAKNTVYLQMNSLKPEDTAVYYCAAVRRNKPVGYGYWGQGTQVTVSS”: the “polyreactivity (PSR sort gate)” value is recorded as “high polyreactivity”. For “QVQLVESGGGLVQAGGSLRLSCAASGRTLPAYAMGWYRQAPGKERELVAAISWGGGSTYYADSVKGRFTISRDNAKKTVYLQMNSLKPEDTAVYYCAVAGYWFAVAEYDYWGQGTQVTVSS” the value was “low polyreactivity”; for “QVQLVESGGGLVQAGGSLRLSCAASGRTLPEYGMGWSRQAPGKEREFVAAISTRGGSTYYANSVKGRFTISRDNAKNTVYLQMNSLKPEDTAVYYCAKVYDRSCGDYWGQGTQVTVSS”, “low polyreactivity”; for “QVQLVESGGGLVQAGGSLRLSCAASGRTLQGYAMGWYSQAPGKERELVAAISRGGGSTYADSVKGRFTISRDNAKNTVYLQMNSLKPEDTAVYYCAAVRGIYGGHYFRYDYWGQGTQVTVSS”, “high polyreactivity”.

For “QVQLVESGGGLVQAGGSLRLSCAASGRTLRRNAMGWYRQAPGKERELVAAITWSGTSTYYADSVKGRFTISRDNAKNTVDLQMNSLKPEDTAVYYCAAEVAYTDTEYFWYYYWGQGTQVTVSS”, the “polyreactivity (PSR sort gate)” value is recorded as “high polyreactivity”. For “QVQLVESGGGLVQAGGSLRLSCAASGRTLSHYAMGWYRQAPGKERELVAAITRSGGSTYYADSVKGRFTISRDYAKNTVYLQMNSLKPEDTAVYYCNKTLYTTYDYWGQGTQVTVSS” the value was “low polyreactivity”; for “QVQLVESGGGLVQAGGSLRLSCAASGRTLSVYAMGWYRQAPGKERELVAAITIRGGRTYYADSVKGRFTISRDNAKNTVYLQMNSLKPEDTAVYYCAAPPYVKMDYWGQGTQVTVSS”, “high polyreactivity”; for “QVQLVESGGGLVQAGGSLRLSCAASGRTLSYYAMGWYRQAPGKEREFVAAITGSGGSTYYADSVKGRFTISRDNAKYTVYLQMNSLKPEDTAVYYCNAKGLGVFTVEYYYWGQGTQVTVSS”, “low polyreactivity”. In the case of “QVQLVESGGGLVQAGGSLRLSCAASGRTLSYYAMGWYSQAPGKERELVAAITWNGGRTYYADSVKGRFTISRDNAKNTVYLQMNSRKPEDTAVYYCNAVYSPRYYVGGYDYWGQGTQVTVSS” it was “high polyreactivity”; in that of “QVQLVESGGGLVQAGGSLRLSCAASGRTLTQNAMGWYRQAPGKERELVATISWTAGSTYYADSVKGRFTISRDNAKNTVYLQMNSLKPEDTAVYYCAADVFYSIYDYWGQGTQVTVSS”, “low polyreactivity”; in that of “QVQLVESGGGLVQAGGSLRLSCAASGRTLVKYAMGWYRQAPGKERELVAAISSGGGTYYADSVKGRFTISRDNAKNTVYLQMNSLKPEDTAVYYCATPYYRRYAAPGYDYWGQGTQVTVSS”, “low polyreactivity”.
